Assay results reported in paper PMC6155775, “Role of Quinone Reductase 2 in the Antimalarial Properties of Indolone-Type Derivatives” (Molecules : A Journal of Synthetic Chemistry and Natural …, 2017).

Substrate: CC1=CC(=O)c2ccccc2C1=O
Assay: enzyme kinetics (KM) by BNAH fluorescence decrease; reference substrate
Type: biochemical, Homo sapiens
Conditions: FAD; pH 8.5; 37.0 °C

B1: human quinone reductase 2 (hQR2) (Homo sapiens) (protein)
chain: MAGKKVLIVYAHQEPKSFNGSLKNVAVDELSRQGCTVTVSDLYAMNLEPRATDKDITGTLSNPEVFNYGVETHEAYKQRSLASDITDEQKKVREADLVIFQFPLYWFSVPAILKGWMDRVLCQGFAFDIPGFYDSGLLQGKLALLSVTTGGTAEMYTKTGVNGDSRYFLWPLQHGTLHFCGFKVLAPQISFAPEIASEEERKGMVAAWSQRLQTIWKEEPIPCTAHWHFGQ
notes: 6his-hQR2
Question: For B1, which Km is on record?
Answer: The Km was 10 ± 1 µM.
